Measured values as given in publication PMC10319874 (Scientific Reports, 2023).

Target: rKgp (Porphyromonas gingivalis) (UniProt Q51817)
Test: enzyme inhibition assay (chromogenic substrate)

rKgp (Porphyromonas gingivalis), sequence (Q51817 25-1732): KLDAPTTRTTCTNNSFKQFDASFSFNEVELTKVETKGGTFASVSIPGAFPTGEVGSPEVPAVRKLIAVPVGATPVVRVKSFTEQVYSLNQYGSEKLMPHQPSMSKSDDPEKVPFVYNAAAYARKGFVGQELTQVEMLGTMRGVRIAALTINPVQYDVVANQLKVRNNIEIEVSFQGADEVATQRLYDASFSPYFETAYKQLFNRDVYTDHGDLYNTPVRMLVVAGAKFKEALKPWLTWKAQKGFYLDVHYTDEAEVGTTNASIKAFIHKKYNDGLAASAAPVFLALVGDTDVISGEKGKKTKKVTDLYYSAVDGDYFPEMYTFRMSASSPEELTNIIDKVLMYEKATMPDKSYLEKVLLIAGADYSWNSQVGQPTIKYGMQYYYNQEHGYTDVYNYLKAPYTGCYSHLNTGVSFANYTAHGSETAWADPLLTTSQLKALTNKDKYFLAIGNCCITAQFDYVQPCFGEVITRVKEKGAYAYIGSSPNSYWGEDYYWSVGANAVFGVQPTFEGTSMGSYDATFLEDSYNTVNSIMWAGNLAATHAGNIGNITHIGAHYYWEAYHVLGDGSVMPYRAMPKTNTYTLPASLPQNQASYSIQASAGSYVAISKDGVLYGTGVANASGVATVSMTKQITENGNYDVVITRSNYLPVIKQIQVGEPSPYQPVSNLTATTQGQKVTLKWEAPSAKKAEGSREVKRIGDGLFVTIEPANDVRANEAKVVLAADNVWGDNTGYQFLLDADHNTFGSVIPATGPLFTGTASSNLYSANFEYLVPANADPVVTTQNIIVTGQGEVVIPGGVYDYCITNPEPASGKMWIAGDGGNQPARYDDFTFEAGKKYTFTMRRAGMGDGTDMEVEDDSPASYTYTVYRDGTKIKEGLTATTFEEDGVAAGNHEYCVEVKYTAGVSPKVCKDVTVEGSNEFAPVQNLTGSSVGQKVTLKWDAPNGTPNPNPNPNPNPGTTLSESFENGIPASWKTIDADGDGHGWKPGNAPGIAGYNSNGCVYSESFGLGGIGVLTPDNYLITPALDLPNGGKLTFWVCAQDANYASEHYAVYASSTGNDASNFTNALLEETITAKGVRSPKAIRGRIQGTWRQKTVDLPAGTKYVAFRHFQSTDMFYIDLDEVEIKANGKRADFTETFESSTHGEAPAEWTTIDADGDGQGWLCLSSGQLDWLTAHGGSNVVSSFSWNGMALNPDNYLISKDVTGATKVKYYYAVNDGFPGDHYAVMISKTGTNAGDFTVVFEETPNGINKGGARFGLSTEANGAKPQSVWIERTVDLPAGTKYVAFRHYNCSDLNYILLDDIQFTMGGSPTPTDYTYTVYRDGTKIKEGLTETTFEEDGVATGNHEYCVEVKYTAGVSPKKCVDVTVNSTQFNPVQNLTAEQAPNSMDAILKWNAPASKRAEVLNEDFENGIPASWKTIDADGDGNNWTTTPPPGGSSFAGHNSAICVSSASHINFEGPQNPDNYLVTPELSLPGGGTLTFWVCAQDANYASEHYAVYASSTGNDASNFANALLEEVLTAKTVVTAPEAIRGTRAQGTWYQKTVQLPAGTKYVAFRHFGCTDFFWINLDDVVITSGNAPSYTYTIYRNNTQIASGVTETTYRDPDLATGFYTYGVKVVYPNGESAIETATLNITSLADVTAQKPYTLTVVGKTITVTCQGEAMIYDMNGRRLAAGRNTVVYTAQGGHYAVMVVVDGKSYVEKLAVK

| Substance | Ki [µM] | IC50 [µM] |
| --- | --- | --- |
| recombinant Kgp propeptide (rKgp-PP) (from UniProt Q51817) (domain or fragment) | 37.5 |  |
| recombinant RgpB propeptide (rRgpB-PP) (from UniProt P95493 25-229) (domain or fragment) |  | 11 |
